In PMC8754118, “The PqsE-RhlR Interaction Regulates RhlR DNA Binding to Control Virulence Factor Production in Pseudomonas aeruginosa” (Microbiology Spectrum, 2022):

Experiments:
[1] = test system: RhlR:mBTL;PqsE (Pseudomonas aeruginosa;Pseudomonas aeruginosa); test: EMSA; conditions: scale: fold higher affinity than RhlR:mBTL alone
6x-His-PqsE (wild type) = 6x-His-PqsE (wild type) (P. aeruginosa, UniProt P20581 1-301); test: cell-based or functional assay
6x-His-PqsE(E182W) = 6x-His-PqsE(E182W) (P. aeruginosa, UniProt P20581 1-301, E182W); test: cell-based or functional assay
6x-His-PqsE(E182W/S285W) = 6x-His-PqsE(E182W/S285W) (P. aeruginosa, UniProt P20581 1-301, E182W | S285W); test: cell-based or functional assay

Molecule: rhlA promoter EMSA probe
- binding signal [1]: 5

B1: RhlR bound to meta-bromo-thiolactone (RhlR:mBTL) (receptor)
chain: MRNDGGFLLWWDGLRSEMQPIHDSQGVFAVLEKEVRRLGFDYYAYGVRHTIPFTRPKTEVHGTYPKAWLERYQMQNYGAVDPAILNGLRSSEMVVWSDSLFDQSRMLWNEARDWGLCVGATLPIRAPNNLLSVLSVARDQQNISSFEREEIRLRLRCMIELLTQKLTDLEHPMLMSNPVCLSHREREILQWTADGKSSGEIAIILSISESTVNFHHKNIQKKFDAPNKTLAAAYAAALGLI
- bioluminescence from prhlA-luxCDABE in E. coli carrying rhlR and pqsE, 500 nM C4HSL, against the strain lacking PqsE (6x-His-PqsE (wild type)): 42 fold
- bioluminescence from prhlA-luxCDABE in E. coli carrying rhlR and pqsE(E182W), 500 nM C4HSL, against the no-PqsE control strain (6x-His-PqsE(E182W)): ~11 fold
- bioluminescence from prhlA-luxCDABE in E. coli carrying rhlR and pqsE(E182W/S285W), 500 nM C4HSL, against the no-PqsE control strain (6x-His-PqsE(E182W/S285W)): ~11 fold
